Results reported in the nanobody polyreactivity screen of Harvey et al. (2022).

Assay: yeast display, Sf9 membrane polyspecificity reagent, FACS + sequencing; frameworks hold sequencing errors
How it was run: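 Galactose induction of a Saccharomyces cerevisiae BJ5465 synthetic nanobody display library ran 36–48 hours. The cells were then stained for 1 hour at 4 °C with 10% biotinylated, detergent-solubilized Sf9 membrane reagent, pulled down on streptavidin microbeads and FACS-sorted into low and high (top ~1%) gates on expression and reagent-binding fluorescence. Labels for polyreactivity follow the gate of origin.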

Sequence	polyreactivity (PSR sort gate)
QVQLQDSGGGLVQAGGSLRLNCATSGTIFVLWYMGCYRQAPGKERELVATINDGANTYYADSVKGRFTINRDNANSTVYLQMNSLQPEDSAVYYCSVYAIIVWGLGYWGQGTQVTVSS	high polyreactivity
QVQLQDSGSGLVQAGGSLRLSCAASGAIFPAYLMVSYRQAPGKERELVAGISYGSITYCADSVKGRFNISRDNAKNTVYLQMNSLKPEDTAVYYCAVWRPGGDEYYYWGQGTQVTVSS	low polyreactivity
QVQLQDTGGGLVQAGGSPRLSCAASDNIFPDSVMCWYRQAPGKERELVATIGFGATTNYADSVKGRFTISRDNAKITVYLQMNSLKPEDSAVYYCAADPLNYEYFCYWGQGTQVTVRS	low polyreactivity
QVQLQECGGGLVQAGGSLRLSCAASGHIFDADIMGWYRQAPGKERELVASVTDGGSTNYADSVKGRFTISRDNAKNTVYLQMNSLKPEATAVFYCAAIVYPDILTYFDYDYDYFYWGQGTQVTVGS	low polyreactivity
QVQLQECGGGLVQAGGSLRLTCAASGNIFHADIMGWYRQAPGKERELVARVTDGGSTNYADSVKGRLTISRDNAKNTVYLQMNSLKPEETAVYYCAAIVYPVILTYFDYDYDYFYWGQGTQVTVGS	low polyreactivity
QVQLQEIGGGLVQAGRSLRLSCAASGSISRLDYMGWYRQASGKERELVAAIDNGSTTYYADSVKGRLTISRDNAKYTVYLQMNSLKPEDTAVYFCAAVRGRGGTHAYWGQGTQVTVSG	low polyreactivity
QVQLQERGGGLVQAGGSLRLGCEASGNISDDGYMGWYRQAPGKEREFVAAIAAGSNTNYADSVKGRFTISRDNAKNTVYLQMNSLKPVETAVFYCAVASYARVQYLYWGQGTQVTVYS	low polyreactivity
QVQLQERGGGLVQAGGSLRLSCAASCTIFRFRYMGGHRQAPGKERELVAGINGGTTTYYADSEIGRFTMSRDNAKNTLYLQMNSLKPDDTAVYNCAAGDSRLTYYDYWGQGTQVTVSS	low polyreactivity
QVQLQERGGGLVQAGGSLRLSCAASGSIFHYTQMGWYLQAPGKEREFVAAITDGANTNYADSVKGRFTISRDNAKNTVNLQMNSLIPEDTAVFYCATDYGYTDRVTSGFDYWGQGTQVTVSS	low polyreactivity
QVQLQERGGGLVQAGGSLRQRCAASRNISASSDLGWYHQAPGKEREFVASITSGGTTYYADSVKGRFTISRDNAKNTVYLQMNSLKPEDTAVYYCAVGDPADAEFGYWGKGTQVTVSS	low polyreactivity
QVQLQESAGARQPAPELRGERIYFWLLLMCWYRQAPGEERELVAGINDGASTNYADSVKGRFTISRDNARNTVYLKMNSLKPGDTAVYYCAVWQPVLIWFYYWGQGTHVTVSS	high polyreactivity
QVQLQESAGGLEQAGGSLRRICSARCNINSDASMGSYRQAPGKQREHAASTTKGSRTHDAESVKGRLTIRDNAKNTVYLQMNSLKPDDTAVCYSAVTYPYWGDYTYWGQGTQVTVSS	low polyreactivity
QVQLQESAVLVQAGGSLRLSCPASGSISGRNVMGRYRQAQAKQREFVASITDGSSTNYADSVKGRFTISRDNAKNTVYLQMNSLNPKDTAVYYCAAYAQRAKSFGYWGRGTQVTVSS	low polyreactivity
QVQLQESDGGLVQAGGSLRLSCAASGSISPQYYMGWYRQAPGKEREFVAISKGTTTYYADSVKGRLTISRVNAKNTVYLQMNSLKPEDTAVYCCAAVRWLQKVHAYWDQGTQVTVSS	low polyreactivity
QVQLQESGAGLVQAGGSLRLSCAASGSIIHLHIMCWYRQAPRKERESVAAISYGTSTYYADSVKGRFTICRDNAKNTVYLQMNSPKPDDTAVYYCAALFLVSKHHHYWGEGTQVTVSS	low polyreactivity
QVQLQESGDGLVQADGSLRLSCAASGYISGYYYMGWYRQQPGKERELVAGIDAFGSSTNYADCVKGRFTISRDNGKNTVYLQMISPKPDDTAVYYCAAVYDDWDYHWYWGQGTQVTVSS	low polyreactivity
QVQLQESGDGLVQAVGSLRLSCAASGYISGYYYMGWYRQAPGKERELVAGIDAFGSSTNYADCVKGRFTISRDNATHTVYLQMNSLKPEDTAVYYCAARPDGDRLFSYWGQGTQVTVSS	low polyreactivity
QVQLQESGGCVVQAGGSLRLSCAASGTISDSGLMGWYRQAPGKERELVAGISSGGITNYADSVKGRFTISRDNAKNTVYLQMNSLKPEDTAVYWGQGTQVTVSS	low polyreactivity
QVQLQESGGDLEQAGGSLRLSCTAIGTISDVRFMGWYRQAPGKERELVATISYVTITYYADSVKGRFTISRDSEKHRVSAHDEPETGRYRGVLLRYYWGLGTQVTVSS	low polyreactivity
QVQLQESGGGLLQAGGSLRLSCAASGTIFRFRYMGWHRQAPGKERELVAGINGGTTTYYADSVIGRFTISRDNAKNTVYLQMNSLKPDDTAVYNCAAGASRLTYYDYWGQGTQVTVSS	low polyreactivity
QVQLQESGGGLLQECGSQRLSCAASGSISEGQDMGWYRRAPGKEREFVAGIAPGATTYYADSVKGRFTISRDNAKNTVYLQMNSLNPEDTAVYYCAARYVTESDHDYWGQVTQVTVSS	low polyreactivity
QVQLQESGGGLVHAGGSLRLSCAASGTISFINMMGWYRQAPGRERELVASINFGANTNYADSVKGRFTISRDNAKNTVYLQMNSLKPEYTAVYYCAVYDFDAYSLYYWGQGTLVTVSS	high polyreactivity

Sequence	polyreactivity (PSR sort gate)
QVQLQESGGGLVKAGGSLRLSCAASGSISNSAAMGWYRQAPGKERELVVSIGHGASSNYADSVKGRFTISRDNAKNTVYLQMNSLKPEDTAVYYCAAYPGFLDGFFYWGQSTQVTVSS	high polyreactivity
QVQLQESGGGLVKAGGTPRLSCAASYNIFPDSVMCWYRQAPGTERELVATIGFVATTNYADSVKGRFTISRDNAKNTLYLQMNSLNPEDTAVYYCAAVPLNYEYFCYWGEGTQVTVSS	low polyreactivity
QVQLQESGGGLVLAGGSLRLSCSASGNIYVYGYKGWYRQAPRKEREFVATIDPGTNTNYADSVKDRFSISRDNAKNSVYLQMKSLKPEDNAVYYCAVEAGSDWPYRYWGLGTQVTVSS	low polyreactivity
QVQLQESGGGLVQACGSQRLSCAASGSISEGQDMGRYRRAPRKEREFVAGIAPGATTYYADSVKGRFTISRDNAKNTVYLQMNSLKPEDTAVYYCAARSVTETDHDYWGQGTQVTVSS	low polyreactivity
QVQLQESGGGLVQACSSLRLSCAASGTIFYYIMGWYRQAPGKERELVATIDLGGGTNYADSVKGRFTISRDDAKNTVYLQMSSLKPEDTAEYYCAVYLYRLTFFYYWGQGNQVTVSS	high polyreactivity
QVQLQESGGGLVQADGSLRLSCAASGSIFGYYNMGWYRQAPGKHRELVATINLCRITNYADSVKGRFTISRDNATNTVYVEMHSLNPDDTAVFYCAADEYAQRDLGYWGQGTQVTVSS	low polyreactivity
QVQLQESGGGLVQADGSLRLSCAASGTIFTQSYMGWYRQAPGKEREFVAGISNGTNTNYGDSVKGRFTISRDNAKNTVYLQMNSLKLEDTAVYYCAVKGFYVDVLAYWGQGTHVTVSS	high polyreactivity
QVQLQESGGGLVQAGGDLRLSCAASGNIFRDYIMGWYRQAPGKEREFVAGIDRGANTNYADSVKGRFTISRDNAKNTVYLQMNSLKQEDTAVYYCAVHTAIVPDFIYWGQGTQVTVSS	low polyreactivity
QVQLQESGGGLVQAGGSLCLSCAASGTIIFDGDMGWYRQAPGKEREFVAAINPGGSAYYADSVKGRLPLAAITHTVYLQMNCLKPEDTAVYYCAAKLFDVYGYYYWGQGTHVTVSS	low polyreactivity
QVQLQESGGGLVQAGGSLLSCAASGPISYYREMGWYRQAPGKERELVAGFGVGTITYYADSVKGRFTISRDNAKNTVYLQMNSLKPEVTAVYYCAAHIDGNDSHAYWGQGTQVTVIS	low polyreactivity
QVQLQESGGGLVQAGGSLRLGCAASGNISDAGYMGWYRQAPGKEREFVAAIAAGSNTNYADSVKGRFTISRDNAKNTVYMQLNSLKSEDTGVFYCAVASYDRVQYEYWGQGTQVTVNS	low polyreactivity
QVQLQESGGGLVQAGGSLRLSCAARGNIFLGDTMGWYRQAPGKEREFVAGIARGGNPYYADSVKGRFTISRNNAKNTVYLQKNSLKPVDTAVHYCAVQRSHASDYNYWGQGTQVTVSS	low polyreactivity
QVQLQESGGGLVQAGGSLRLSCAASGNIFGTKSMGWYRQAPGKGREFVAAINDGGSTNYADSVKGRFTIGRDNAKNTVYLQMNSLKPEDTAVYYCAAQWVRSDYHTYWGQGTQVTVSS	high polyreactivity
QVQLQESGGGLVQAGGSLRLSCAASGNISVTGVMGWYRQAPGKERELVASIGIGGTTYYADSVKGRFSISRDNAKNTVYLQMNSLKPEDTAVYYCGARYVYSAYSYWGQGSQVTVSS	low polyreactivity
QVQLQESGGGLVQAGGSLRLSCAASGNIVDADIMGWSRQAPGKERELVASITDGGSTNYADSVKGRFTISRDYAKNTVYLQMNSLKPEDTAVYYCAAIAYPDIPTYIDYDSEYFYWGQGTQVTVSS	low polyreactivity
QVQLQESGGGLVQAGGSLRLSCAASGSIFADVQMGWYRQAPGKELELVASINFRGTTTYYADSVKGRFTISRDNAKNTVYLQMSSLKPEDNAVYYCAVGRSEGGDFAYWGQGTHVTVSS	low polyreactivity
QVQLQESGGGLVQAGGSLRLSCAASGSIFDSTFMGWYRQAPGKERELVAGISYGTITYYADSVKGRFTISRDNAKHRVSAEEQPESGRYRGVLLRGYPAGQLFLACWGQGTQVTESS	high polyreactivity
QVQLQESGGGLVQAGGSLRLSCAASGSIFDTPTMGWYRQAPGKERELVASIAYDDNTYYADSVKGRFTISRYNAKHTVYLQMNSLKPGDTAVYYCAVTDRIYYYFVYWGQGTRVTVSS	high polyreactivity
QVQLQESGGGLVQAGGSLRLSCAASGSIFKVVDMGLYRQAPAKEREFVATIGEGGNTYYADSVKGRFTISRDNAKNTVYLQMHSLKPEDTAVYFYAVVLGTSYRYTYWGQGTQVTVSS	low polyreactivity
QVQLQESGGGLVQAGGSLRLSCAASGSIFLLHIMCWYRQAPGKERESVAAISYGTSTYYADSVNGRFTICRDNAKNTVYLQMNSPKPDDTAVYYCAALFLVSKHHHFWGEGTQVTVSS	low polyreactivity
QVQLQESGGGLVQAGGSLRLSCAASGSIFVSVTMGWYRQAPGKERELVASIGRGSTTNHADSVKGRFTISRDNAKNIVYLLMNSLKPEDTAVYSCAALESYGKYHGYWGQGTQVTVSS	low polyreactivity
QVQLQESGGGLVQAGGSLRLSCAASGSIFVSVTMGWYRQAPGKERELVASIGRGSTTNHADSVKGRFTISRDNAKNIVYLLMNSLKPEDTAVYYCASLESYGKYHGYWGQGTQVTVSS	low polyreactivity
